Data: the supplement of paper PMC9233669
Variants at the floor of the assay were thinned out.

Experiments:
biotinyl-Phe-oxazolone = test: self-aminoacylation, catalytic enhancement (BFO) (fold over background); higher = more active; k-Seq, kA / k0A0; sequences stand for … in GGGAAUGGAUCCACAUCUACGAAUUC…UUCACUGCAGACUUGACGAAGCUG
How it was run: (§1)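 Catalytic enhancement equals the median kA over the uncatalyzed rate, the latter read from the low-activity peak of a bimodal Gaussian fit. Values of kA came from fitting each sequence's fraction reacted to a pseudo-first-order model, with 1000 bootstraps. Reacted RNA was captured with streptavidin and quantified by triplicate qPCR and Illumina sequencing after 90 minutes at room temperature with 2–1250 μM biotinyl-aminoacyl-oxazolone and 0.43 μM mutagenized RNA pools bearing a 21-nt variable region.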

biotinyl-Ile-oxazolone = test: self-aminoacylation, catalytic enhancement (BIO) (fold over background); higher = more active; k-Seq, kA / k0A0; sequences stand for … in GGGAAUGGAUCCACAUCUACGAAUUC…UUCACUGCAGACUUGACGAAGCUG
How it was run: as §1

biotinyl-Met-oxazolone = test: self-aminoacylation, catalytic enhancement (BMO) (fold over background); higher = more active; k-Seq, kA / k0A0; sequences stand for … in GGGAAUGGAUCCACAUCUACGAAUUC…UUCACUGCAGACUUGACGAAGCUG
How it was run: as §1

biotinyl-Val-oxazolone = test: self-aminoacylation, catalytic enhancement (BVO) (fold over background); higher = more active; k-Seq, kA / k0A0; sequences stand for … in GGGAAUGGAUCCACAUCUACGAAUUC…UUCACUGCAGACUUGACGAAGCUG
How it was run: as §1

biotinyl-Leu-oxazolone = test: self-aminoacylation, catalytic enhancement (BLO) (fold over background); higher = more active; k-Seq, kA / k0A0; sequences stand for … in GGGAAUGGAUCCACAUCUACGAAUUC…UUCACUGCAGACUUGACGAAGCUG
How it was run: as §1

biotinyl-Trp-oxazolone = test: self-aminoacylation, catalytic enhancement (BWO) (fold over background); higher = more active; k-Seq, kA / k0A0; sequences stand for … in GGGAAUGGAUCCACAUCUACGAAUUC…UUCACUGCAGACUUGACGAAGCUG
How it was run: as §1

Row | Sequence | self-aminoacylation (biotinyl-Phe-oxazolone) | self-aminoacylation (biotinyl-Ile-oxazolone) | self-aminoacylation (biotinyl-Met-oxazolone) | self-aminoacylation (biotinyl-Val-oxazolone) | self-aminoacylation (biotinyl-Leu-oxazolone) | self-aminoacylation (biotinyl-Trp-oxazolone)
1 | AUUCACCCCGGUCAUCGGGUG [Fam2.2 aminoacylation ribozyme variant] | 64.7 | 4.14 | 7.52 | 3.99 | 8.33 | 5.88
2 | AUUCACCGAGGCCAUCGGGUG [Fam2.2 aminoacylation ribozyme variant] | 32.8 | 3.16 | 5.31 | 4.36 | 6.39 | 4.78
3 | AUUCACCGAGGUAAUCGGGUG [Fam2.2 aminoacylation ribozyme variant] | 60.4 | 4.23 | 8.27 | 5.13 | 11.5 | 8.26
4 | AUUCACCGAGGUCAUCGGAUG [Fam2.2 aminoacylation ribozyme variant] | 0.641 | 1.18 | 1.07 | 1.17 | 1.41 | 1.42
5 | AUUCACCGAGGUCGUCGGGUG [Fam2.2 aminoacylation ribozyme variant] | 11.1 | 2.55 | 3.16 | 2.55 | 3.03 | 3
6 | AUUCACCGAGGUGAUCGGGUG [Fam2.2 aminoacylation ribozyme variant] | 29.6 | 3.8 | 4.75 | 4.15 | 6.59 | 3.05
7 | AUUCACCGAGGUUAUCGGGUG [Fam2.2 aminoacylation ribozyme variant] | 87.3 | 4.28 | 7.16 | 5.85 | 10 | 7.66
8 | AUUCACCUAACUCAUCGGGUG [Fam2.2 aminoacylation ribozyme variant] | 22.8 | 2.36 | 4.05 | 2.41 | 4.47 | 3.17
9 | AUUCACCUAAGCCAUCGGGUG [Fam2.2 aminoacylation ribozyme variant] | 26.6 | 2.55 | 3 | 3.24 | 4.62 | 3.01
10 | AUUCACCUAAGGCAUCGGGUG [Fam2.2 aminoacylation ribozyme variant] | 26.5 | 2.69 | 3.3 | 3.31 | 4.9 | 3.67
11 | AUUCACCUAAGUCAACGGGUG [Fam2.2 aminoacylation ribozyme variant] | 28 | 2.58 | 3.57 | 2.43 | 4.67 | 3.21
12 | AUUCACCUAAGUCACCGGGUG [Fam2.2 aminoacylation ribozyme variant] | 53.8 | 4.72 | 7.03 | 4.88 | 8.36 | 5.67
13 | AUUCACCUAAGUCAUAGGGUG [Fam2.2 aminoacylation ribozyme variant] | 5.88 | 1.32 | 1.87 | 1.21 | 1.92 | 1.3
14 | AUUCACCUAAGUCAUCGGAUG [Fam2.2 aminoacylation ribozyme variant] | 0.343 | 0.917 | 0.736 | 0.983 | 0.815 | 0.557
15 | AUUCACCUAAGUCAUCGGCUG [Fam2.2 aminoacylation ribozyme variant] | 5.86 | 1.52 | 1.55 | 1.58 | 1.63 | 0.999
16 | AUUCACCUAAGUCAUCGGGAG [Fam2.2 aminoacylation ribozyme variant] | 0.578 | 1.07 | 1.2 | 1.49 | 1.81 | 1.14
17 | AUUCACCUAAGUCAUCGGGCG [Fam2.2 aminoacylation ribozyme variant] | 9.59 | 2.63 | 2.83 | 2.53 | 4.95 | 2.51
18 | AUUCACCUACGUCAUAGGGUG [Fam2.2 aminoacylation ribozyme variant] | 0.864 | 0.915 | 1.34 | 0.933 | 1.02 | 0.634
19 | AUUCACCUACGUCAUCGCGUG [Fam2.2 aminoacylation ribozyme variant] | 83.5 | 5.7 | 10.3 | 5.93 | 14.1 | 9.63
20 | AUUCACCUACGUCAUCGGGUC [Fam2.2 aminoacylation ribozyme variant] | 4.31 | 1.17 | 1.25 | 1.21 | 1.36 | 0.963
21 | AUUCACCUACGUCAUCGGGUG [Fam2.2 aminoacylation ribozyme variant] | 36.7 | 3.24 | 5.27 | 3.38 | 6.98 | 4.79
22 | AUUCACCUACGUGAUCGGGUG [Fam2.2 aminoacylation ribozyme variant] | 20.2 | 2.19 | 2.81 | 2 | 3.64 | 3.44
23 | AUUCACCUAGAUCAUCGCGUG [Fam2.2 aminoacylation ribozyme variant] | 48.1 | 3.85 | 5.82 | 3.69 | 8.58 | 5.99
24 | AUUCACCUAGAUCAUCGGUUG [Fam2.2 aminoacylation ribozyme variant] | 0.463 | 0.794 | 0.778 | 0.983 | 0.786 | 0.447
25 | AUUCACCUAGAUCAUCUGGUG [Fam2.2 aminoacylation ribozyme variant] | 14.8 | 1.71 | 2.39 | 1.73 | 2.82 | 2.21
26 | AUUCACCUAGAUCAUGGGGUG [Fam2.2 aminoacylation ribozyme variant] | 31.5 | 3.07 | 5.3 | 2.61 | 6.83 | 4.68

Row | Sequence | self-aminoacylation (biotinyl-Phe-oxazolone) | self-aminoacylation (biotinyl-Ile-oxazolone) | self-aminoacylation (biotinyl-Met-oxazolone) | self-aminoacylation (biotinyl-Val-oxazolone) | self-aminoacylation (biotinyl-Leu-oxazolone) | self-aminoacylation (biotinyl-Trp-oxazolone)
27 | AUUCACCUAGAUCCUCGGGUG [Fam2.2 aminoacylation ribozyme variant] | 22.6 | 2.22 | 3.57 | 1.99 | 4.04 | 3.16
28 | AUUCACCUAGAUCGUCGGGUG [Fam2.2 aminoacylation ribozyme variant] | 3.8 | 1.14 | 1.06 | 1.38 | 1.3 | 0.967
29 | AUUCACCUAGCUCAACGGGUG [Fam2.2 aminoacylation ribozyme variant] | 6.75 | 1.37 | 1.88 | 1.36 | 2.28 | 1.95
30 | AUUCACCUAGCUCAUCCGGUG [Fam2.2 aminoacylation ribozyme variant] | 16.5 | 2.45 | 3.18 | 2.51 | 3.7 | 3.68
31 | AUUCACCUAGCUCAUCGAGUG [Fam2.2 aminoacylation ribozyme variant] | 0.417 | 0.7 | 0.652 | 0.791 | 0.548 | 0.394
32 | AUUCACCUAGCUCAUCGGUUG [Fam2.2 aminoacylation ribozyme variant] | 0.258 | 0.978 | 0.921 | 0.845 | 0.861 | 0.533
33 | AUUCACCUAGCUCAUUGGGUG [Fam2.2 aminoacylation ribozyme variant] | 5.14 | 1.44 | 1.89 | 1.69 | 1.62 | 2.07
34 | AUUCACCUAGCUCUUCGGGUG [Fam2.2 aminoacylation ribozyme variant] | 10.9 | 2.08 | 2.25 | 2.42 | 2.62 | 2.74
35 | AUUCACCUAGGAAAUCGGGUG [Fam2.2 aminoacylation ribozyme variant] | 53 | 4.03 | 6.99 | 3.5 | 8.95 | 5.87
36 | AUUCACCUAGGACAUCCGGUG [Fam2.2 aminoacylation ribozyme variant] | 31 | 7.62 | 5.98 | 6.22 | 6 | 4.47
37 | AUUCACCUAGGACAUCGCGUG [Fam2.2 aminoacylation ribozyme variant] | 26.8 | 2.53 | 3.57 | 2.83 | 4.57 | 3.99
38 | AUUCACCUAGGACAUCUGGUG [Fam2.2 aminoacylation ribozyme variant] | 8.71 | 2.02 | 2.13 | 1.72 | 2.13 | 2.13
39 | AUUCACCUAGGACAUUGGGUG [Fam2.2 aminoacylation ribozyme variant] | 25.8 | 2.24 | 3.42 | 2.28 | 4 | 2.79
40 | AUUCACCUAGGACGUCGGGUG [Fam2.2 aminoacylation ribozyme variant] | 9.18 | 1.66 | 1.91 | 1.88 | 1.91 | 1.42
41 | AUUCACCUAGGCCAUCCGGUG [Fam2.2 aminoacylation ribozyme variant] | 32 | 4.25 | 5.26 | 4.6 | 5.83 | 5.92
42 | AUUCACCUAGGCCAUCGCGUG [Fam2.2 aminoacylation ribozyme variant] | 31.6 | 4.69 | 4.45 | 4.15 | 6.31 | 3.85
43 | AUUCACCUAGGCCAUCGGGUA [Fam2.2 aminoacylation ribozyme variant] | 16.4 | 2.42 | 3.31 | 2.21 | 3.81 | 3.52
44 | AUUCACCUAGGCCAUUGGGUG [Fam2.2 aminoacylation ribozyme variant] | 34.9 | 3.11 | 4.09 | 2.85 | 5.31 | 3.71
45 | AUUCACCUAGGCCCUCGGGUG [Fam2.2 aminoacylation ribozyme variant] | 24.2 | 2.81 | 3.26 | 3.1 | 3.88 | 3.75
46 | AUUCACCUAGGCCUUCGGGUG [Fam2.2 aminoacylation ribozyme variant] | 19.9 | 2.49 | 3.67 | 3.43 | 5.19 | 3.83
47 | AUUCACCUAGGCUAUCGGGUG [Fam2.2 aminoacylation ribozyme variant] | 21.8 | 2.43 | 3.76 | 3.06 | 4.84 | 3.79
48 | AUUCACCUAGGGCAUCCGGUG [Fam2.2 aminoacylation ribozyme variant] | 54.4 | 10.5 | 10.7 | 8.74 | 12.6 | 8.38
49 | AUUCACCUAGGGCAUCGGGUA [Fam2.2 aminoacylation ribozyme variant] | 2.02 | 2.89 | 3.25 | 3.46 | 2.34 | 3.3
50 | AUUCACCUAGGGCGUCGGGUG [Fam2.2 aminoacylation ribozyme variant] | 9.76 | 1.73 | 2.21 | 1.84 | 2.92 | 1.83
51 | AUUCACCUAGGUAAACGGGUG [Fam2.2 aminoacylation ribozyme variant] | 22.9 | 1.97 | 3.77 | 2.27 | 4.47 | 3.84
